Square brackets hold non-standard residues; d marks the D form. Ends that are not written are not given here.
B1: rAMH: recombinant Anti-Müllerian hormone (rAMH), comparator in the mouse study (protein, UniProt P03971 452-560, looked up)
Muellerian-inhibiting factor: SAGATAADGPCALRELSVDLRAERSVLIPETYQANNCQGVCGWPQSDRNPRYGNHVVLLLKMQVRGAALARPPCCVPTAYAGKLLISLSEERISAHHVPNMVATECGCR

What was measured:
[1] = target: T1, AMH-R2 (Homo sapiens, UniProt Q16671); assay: peptide microarray assay identifying AMH receptor binding peptides; settings: microarray signal
T1 construct: GST
T1 sequence (Q16671 18-573): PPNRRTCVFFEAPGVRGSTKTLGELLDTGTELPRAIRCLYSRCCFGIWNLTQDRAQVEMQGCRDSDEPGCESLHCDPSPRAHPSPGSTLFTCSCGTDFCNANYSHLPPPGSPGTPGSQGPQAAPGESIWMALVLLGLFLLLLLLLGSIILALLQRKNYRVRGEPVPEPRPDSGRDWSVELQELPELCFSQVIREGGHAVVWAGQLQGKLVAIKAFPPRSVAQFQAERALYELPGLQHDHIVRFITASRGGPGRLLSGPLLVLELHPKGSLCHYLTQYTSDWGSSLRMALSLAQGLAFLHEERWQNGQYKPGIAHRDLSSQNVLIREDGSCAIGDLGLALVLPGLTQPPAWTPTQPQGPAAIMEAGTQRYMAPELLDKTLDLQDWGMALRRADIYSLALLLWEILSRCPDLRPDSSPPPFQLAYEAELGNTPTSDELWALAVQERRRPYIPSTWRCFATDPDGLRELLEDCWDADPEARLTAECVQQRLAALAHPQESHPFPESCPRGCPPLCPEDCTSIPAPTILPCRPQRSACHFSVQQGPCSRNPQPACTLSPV
Source text: In view of the several actions of AMH, and because of the need for AMH receptor agonists and/or antagonist that can modify the activity of one or more of the AMH receptors, provided herein are AMH receptor binding peptides that modulate the activity of the AMH receptor, as described herein. Briefly, it was hypothesized that peptides that bind AMH receptors could be generated based on the amino acid sequence of the AMH biding site of the AMH-R2 receptor. More particularly, based on the amino acid sequence of the AMH-R2 that is responsible for binding AMH, as well as the amino acid sequences of AMH-R2 that are near the AMH binding site, a peptide microarray was used to identify candidate AMH receptor binding peptides that can activate AMH-R2 and thus produce similar effects to native AMH.
To identify candidate AMH receptor binding peptides described herein, a custom peptide library composed of replicate copies of a 124,000 17 mer peptide microarray was synthesized (Arizona State University, Tempe, AZ) using the method described in Legutki, J. B., et al., Scalable high-density peptide arrays for comprehensive health monitoring. Nat Commun., volume 5, 4785 (2014). The slide was assembled into an Arrayit 4×24 Hybridization Cassette and each peptide microarray was blocked with 150 uL of 30% human sera in 1×PBST for 1 hour at room temperature with shaking After blocking, the slide was washed 3× with 1×PBST using a Biotek plate washer prior to addition of protein targets. Each protein sample was diluted in 30% human sera in 1×PBST and 150 uL of each sample was dispensed into the appropriate wells in the cassette and incubated for 1 hour at 37 C with rotation at 300 rpm on a ThermoMix™ 500 heater/shaker.
After incubation, the cassette was dismantled, the slide washed 3 times in 1×PBST, rinsed three times with distilled, deionized water (ddH2O), and dried in a centrifuge for 2 minutes at 800 rpm. Secondary antibody (anti-GST, GE Healthcare™) was prepared at 10 nM in 30% human sera in 1×PBST and dispensed onto the slide. The slide was incubated for 1 hour at 37 C with rotation at 300 rpm as before. The slide was then washed 3 times in 1×PBST, rinsed 3 times with ddH2O, and dried in a centrifuge for 2 minutes at 800 rpm. Detection antibody, 10 nM Alexa Flour 647 donkey anti-goat IgG (H+L) (ThermoFisher Scientific™), was prepared in 0.75% casein in 1×PBST and dispensed onto the slide. The slide was covered and incubated for 1 hour at 37 C with rotation as before. The slide was washed 3 times in 1×PBST, rinsed 3 times with ddH2O, and dried in a centrifuge for 2 minutes at 800 rpm. The slide was scanned on an Innopsys™ Inoscan 910AL scanner and the resulting TIFF files were analyzed using the Genepix™ Pro 6.0 software. Data files were exported and analyzed using Microsoft Excel™ and JMP™ software.

[2] = tested on: A2780 (endometroid ovarian cancer) cells; assay: MTT cell proliferation assay; assay type: cell-based; settings: 5, 10 and 20 μg/ml, 24 hours, vs untreated control
Experimental: (§1) This example describes the effect of the AMH receptor binding peptides from Example 1 on cellular proliferation, in accordance with certain example embodiments. Briefly, the first two AMH receptor binding peptides (SEQ ID NOS:1-2) from Table 1 were tested on four types of AMHR2-expressing, immortalized, chemotherapy-resistant ovarian cancer cells: SKOV-3 (ovarian serous cystadenocarcinoma), EL-1 (epithelial ovarian cancer), A2780 (endometroid ovarian cancer), and MDAH (endometroid ovarian cancer) in an MTT Assay (Trevigen™ MTT Cell Proliferation Assay).
(§2) For each cell line, cells were seeded into Falcon tissue culture treated 96-well plates in a fixed volume of 100 mcl at a density of 8,000 cells/well. […] Each experiment was executed in triplicates. For 3+1 treatments×3 wells+10 extra=22 wells×8000 cells per well, the total number of cells needed per AMH receptor binding peptide/cell line was 176,000. The cells were spun down in a sterile 15 ml conical tube for 5 minutes at 200×g and then resuspended in 2.2 ml of media (100 ul per well×22 wells). 100 mcl of the cell-containing fluid (=8,000 cells) were placed in each well of the 96-well plate. After 24 hours the media was removed from each well and replaced with the 4 treatment media (phenol-free media). At this point, 10 extra wells with media, but no cells, were created per each cell line (10×4=40 wells). The AMH receptor binding peptides (AMHR2BP (SEQ ID NO: 1) or AMHR2BP2 (SEQ ID NO: 2)) were administered in the culture medium and the effects analyzed after 24 hours in culture as percentage reduction of cell replication using an MTT […] assay.

[3] = tested on: EL-1 (epithelial ovarian cancer) cells; assay: MTT cell proliferation assay; assay type: cell-based; settings: 5, 10 and 20 μg/ml, 24 hours, vs untreated control
Experimental: as §1, §2

[4] = tested on: MDAH (endometroid ovarian cancer) cells; assay: MTT cell proliferation assay; assay type: cell-based; settings: 5, 10 and 20 μg/ml, 24 hours, vs untreated control
Experimental: as §1, §2

[5] = tested on: SKOV-3 (ovarian serous cystadenocarcinoma) cells; assay: MTT cell proliferation assay; assay type: cell-based; settings: 5, 10 and 20 μg/ml, 24 hours, vs untreated control
Experimental: as §1, §2

[6] = tested on: ovarian follicles of C57BL/6J female mice; assay: in vivo mouse ovary histology, follicle count and cell proliferation
Source text: Knowledge of the developmental landmarks and the highly inbred conformity made C57BL/6J female mice a natural choice for this study. In this mouse strain, puberty is characterized by vaginal opening at approximately 25 days of life, estrus 3-4 days later, and subsequently by regular cycling every 5-6 days. Maturity is considered to be reached at 90 days of life (12 weeks).
Briefly, 24 C57BL mature female mice (18 weeks old) were allocated to four (4) experimental groups: baseline group (6 mice), AMHR2BP (SEQ ID NO: 1) group (6 mice), a recombinant rAMH group (6 mice), and control group (6 mice; 21 weeks of age, that received saline). The six mice in the baseline group were euthanized at the beginning of the experiment and comprised the baseline against which to compare the 2 experimental, and the control, groups. Mice in the AMHR2BP (SEQ ID NO: 1) group received AMHR2BP (SEQ ID NO: 1) at a daily dose of 50 μg/day (BP group); the rAMH group received recombinant AMH (rAMH) at a daily dose of 1.8 μg/day (to obtain 24.0 ng/ml serum level), and the control group received normal saline.
In order to accomplish this task, an osmotic pump was implanted intraperitoneally at time zero. […] The osmotic pump (ALZET Osmotic Pumps, model 1004, Cupertino, CA) administered AMHR2BP (SEQ ID NO: 1) and rAMH with a flow rate (QT) of 0.11 μl/h for 4 weeks, based on a mouse temperature of 36.9° C. and a tissue osmolality of 7.5 atm. The daily AMHR2BP (SEQ ID NO: 1) dose was chosen based on the results of Example 3 (above) and estimated in vitro to in vivo extrapolation (IVIVE), while the rAMH dose was determined as described in reference. Mice in the control group were treated with normal saline by using the same osmotic pump vehicle implanted intraperitoneally. All mice in the 2 experimental, and the control, groups were euthanized 3 weeks into the experiment. All mice underwent a blood draw just prior to euthanasia, and their ovaries were explanted for real-time RT-PCR and histological analyses.
After dissection, one ovary was stored in formalin and embedded in paraffin for immunohistochemical examination of follicular development and count with hematoxylin and eosin staining, while Ki67 slides were used for examination of cell proliferation. The other ovary was frozen for mRNA analysis (see below). Five μm-thick sections were serially cut and every 5th section analyzed for follicular counts. All ovarian cortex specimens where obtained from each group, and at least three sections were analyzed in each tissue specimen. The computerized program used for image analysis, CaseCenter™ by 3DHistech Pathology Information System™ (Version 2.3; Budapest, Hungary), allowed us to examine all the sections at the same time and to accurately count all the follicles in each section without redundancy. For follicle counting, the investigators were blinded to the treatment groups. One oocyte surrounded by a monolayer of flat, or cubic, granulosa cells enclosed by a basement membrane identified a primordial (PDF) and a primary follicle (PRF), respectively. Secondary follicles (SEF) were identified with one oocyte surrounded by multiple layers of cubic granulosa cells, and tertiary follicles (TEF) by fluid accumulation amid the granulosa cells.

[7] = tested on: luteinized GCs; settings: rAMH group; cited from earlier work
[8] = mouse ovarian cortex, 3 weeks, i.p. osmotic pump, AMHR2BP 50 μg/day, rAMH 1.8 μg/day

Row | Molecule | Average ([1]; average of Rep 1 and Rep 2) | Rep 1 ([1]; replicate 1) | Rep 2 ([1]; replicate 2) | cell proliferation [2] | cell proliferation [3] | cell proliferation [4] | cell proliferation [5] | PDFs compared with the control (placebo) group ([6]; control group 21 weeks' age) | PRFs compared with the control (placebo) group ([6]; control group 21 weeks' age) | SEFs compared with the control (placebo) group ([6]; control group 21 weeks' age) | TEFs compared with the control (placebo) group ([6]; control group 21 weeks' age) | Corp. Lutea/mm^3 Median [6, 8] | PDF/mm^3 Median [6, 8] | PRF/mm^3 Median [6, 8] | SEF/mm^3 Median [6, 8] | TEF/mm^3 Median [6, 8] | reduction of Ki67 and Caspase3 [7]
1 | NGSSlQAVNrlSGVS (NGSS[dL]QAVN[dR][dL]SGVS) [SEQ ID NO: 2] | 65535 | 65535 | 65535 | reduced cellular proliferation | reduced cellular proliferation | reduced cellular proliferation | reduced cellular proliferation |  |  |  |  |  |  |  |  |  | 
2 | B1 |  |  |  |  |  |  |  | maintained | low | lower | lower | 7.5 /mm^3 | 1182 /mm^3 | 514 /mm^3 | 1144 /mm^3 | 871 /mm^3 | greater than 30%

From patent US12662542B2, “Agnostic anti-mullerian hormone receptor binding peptides” (OVARES D LLC, priority 2019, dated 2026)
